# Reference: the nanobody polyreactivity screen of Harvey et al. (2022)
# Assay: yeast display, Sf9 membrane polyspecificity reagent, FACS + sequencing; frameworks hold sequencing errors
# Method in brief: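 Synthetic nanobody libraries on Saccharomyces cerevisiae BJ5465 were galactose-induced for 36–48 hours, stained 1 hour at 4 °C with 10% biotinylated, detergent-solubilized Sf9 membrane reagent and enriched on streptavidin microbeads. FACS then separated cells into low and high (top ~1%) gates by anti-HA (expression) and streptavidin (reagent binding) fluorescence. Genes were colony-PCR amplified, MiSeq 2 × 250 sequenced and CDR-length filtered. A clone's polyreactivity label is that of its gate of origin.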
sequence,measurement,value
QVQLVESGGGLVQAGGSLRLSCAASGIIIDNYTMGWYRQAPGKEREFVAAINKSGGSTYADSVKGRFTISRDNAKNTVYLQMNSLKPEDTAVYYCAAEVDYSYWPEYARKYYYWGQGTQVTVSS,polyreactivity (PSR sort gate),low polyreactivity
QEQLEESGGGLVQAGGRLRLSCAASGSTFGINARGWYRQAPGKEREVVASITRRGGSTYYADSVKGRFTISRDNAKNTVYLQMNSLKPEDTAVYYCNKTYRYGTPLYYYWGQGTQVTVSS,polyreactivity (PSR sort gate),high polyreactivity
QVQLQESGGGLVQAGGSLRMSCAARGTIFWQWAMGWYCQAPGKERELVASISSGGTTYHADSVKGRFTISRDNAKNTVYLQMNSLKPEDTAVYYCNAPNWSVAYVYITQEMDYWGQGTQVTVSS,polyreactivity (PSR sort gate),low polyreactivity
QVHLVESGGGLVQAGGSLRLSCAASGSTFAKNAMGWYRQAPGKERELVAAITRSAGSTYYADSVKGRFTISRDNAKNTVYLQMNSLKPEDTAVYYCDRRVSGTPWYGYWGQGTQVTVSS,polyreactivity (PSR sort gate),high polyreactivity
QVQLVESGGGLVQAGGSLRLSCAASGRTFAKSAMGWSRQAPGKERELVAAIRWSGGSTYYADSVKARFTISRDNAKNTVYLQMNSLKPEDTAVYYCATERFLLGLGYDYWGQGTQVTVSS,polyreactivity (PSR sort gate),high polyreactivity
QVQLVESGGGLVQAGGSLRLSCAASGFIFQIYPMGWYRQAPGKERELVAAISSGGSTNYADSVKGRFTISRDNAKNTVYLQMNSLKPEDTAVYYCAAATHYWYFYSFKDKSGFRGYYWGQGTQVTVSS,polyreactivity (PSR sort gate),high polyreactivity
QVQLVESGGGLVQAGGSLRLSCAASGFIFTRYAMGWYRQAPGKERELVAAITRSGGRTYYADSVKGRFTISRDNAKNTVYLQMNSLKPEDTAVYYCAAEGSVGLYGLIMHYWGLGTQVTVSS,polyreactivity (PSR sort gate),high polyreactivity
QVQVVESGGGLVQAGGSLRLSCAASGSIFNQYAMGWHRQAPGKERELVAAISSDGGRTYYADSVKGRFTISRDNAKNTVYLQMNSLKPEDTAVYYCNADFPAYGLQGDDYWGQGTQVTVSS,polyreactivity (PSR sort gate),low polyreactivity
QVQLVESGGGIDQAGGSLRLSCAASGGTFFSNAMGWYRQAPGKERELVAGITSGGRTYYADSVKGRFTISRDNAKNTVYLQMNSLKPEDTAVDYCATRSRRTYYYYGAEGYWGQGTQVTVSS,polyreactivity (PSR sort gate),high polyreactivity
QVQLVESGGGLVQAGGSLRLSCAASGSIFKGYAMGWYRQAPGKERELVAANTYSGGGTYYADSVKGRFTISRDNAKNTVYLQMKSLKQEDTAVYYCNADRYYPDDLSDGVGTYDYWGQGTQVSVSS,polyreactivity (PSR sort gate),low polyreactivity
QVQLVESGGGLVQAGGSLRLSCAASGRTFGYYAMGWYRQAPGKERELVAPISWSGANTYYADSVKGRFTISRDNAKNTVYLQMNSLKPEDTAVYYCAAVRYYSYAYSIRYGYWGQGTQVTVSS,polyreactivity (PSR sort gate),high polyreactivity
QVQLVESGGGLVQAGGSLRLSCAASGSIFEPYAMGGYRQAPWTERELVAAIRVSGGSTYYADSVKGRFTISRDNAKNTVYLQMNSLKPEDTAVYYCGPDWWSRYYYWGQGTQVTVSS,polyreactivity (PSR sort gate),high polyreactivity
QVQLVESVGGLVQAGGSLRLSCAASGSIFVPYAMGWYRQAPGKEREFVAAIYSGGGNTYYADSVKGRFTISRDNAKNTVYLQMNSLIPEDTAVYYCAAAYFYSSWSRYDYWGQGTQVTVSS,polyreactivity (PSR sort gate),high polyreactivity
QVQLVESGGGLVQAGGSLRLSCAASGRIFYVNAMGWYRQAPGKERELVAAIDVNDGITYYADSVKGRFTISRDNAKNTVYLQMNSLKPEDTAVYYCAAETLYWNDIIWDVEYWGQGTQVTVSS,polyreactivity (PSR sort gate),high polyreactivity
QVQLVESGGGLVQAGGSLRLSCAASGFTFYSYVMGWYRQAPGKERELVAAIDPSGGRTYYADSVKGRFTISRDYAKNTVYLQMNSLKPVDTAVYYCAVPRVDYWGQGTQVTVSS,polyreactivity (PSR sort gate),high polyreactivity
QVQLVESGGGLVQAGGSLRLSCAASGSTFGTYAMGWYRQAPGKEREFVAVIRWSGGSTYYADSVKGRFTISRDNAKNTVYLQMNSLKPEDTAVYYCNADTRVKYVGWMYYWGQGTQVTVSS,polyreactivity (PSR sort gate),high polyreactivity
QVQLVESGGGLVQAGGSLRLSCAASGRTSSWYVMGWYRQAPGKERELVAAISGSGGSTYYADSVKGRFTISRDNAKNTVYLQMNSLKPEDTAVYYCAADSWSYSGYNYWGQGTQVTVSS,polyreactivity (PSR sort gate),high polyreactivity
